Experimental data taken from article PMC2865556 (Integrative biology : quantitative biosciences from nano to …, 2009).

Biological target: full-length t-SNARE heterodimer (syntaxin 1A and SNAP-25) (UniProt P32851 1-288; P60879 1-206)
Experiment: AFM single-molecule force spectroscopy

full-length t-SNARE heterodimer (syntaxin 1A and SNAP-25), sequence (P32851 whole entry, chain 1 of 2): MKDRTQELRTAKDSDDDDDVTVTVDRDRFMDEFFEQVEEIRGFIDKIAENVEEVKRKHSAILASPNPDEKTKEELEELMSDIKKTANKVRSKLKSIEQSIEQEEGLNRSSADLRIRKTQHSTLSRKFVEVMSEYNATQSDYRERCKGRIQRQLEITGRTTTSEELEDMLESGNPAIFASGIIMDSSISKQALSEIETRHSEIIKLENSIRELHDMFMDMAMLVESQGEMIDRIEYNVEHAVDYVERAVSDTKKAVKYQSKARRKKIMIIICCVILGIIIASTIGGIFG
full-length t-SNARE heterodimer (syntaxin 1A and SNAP-25), sequence (P60879 whole entry, chain 2 of 2): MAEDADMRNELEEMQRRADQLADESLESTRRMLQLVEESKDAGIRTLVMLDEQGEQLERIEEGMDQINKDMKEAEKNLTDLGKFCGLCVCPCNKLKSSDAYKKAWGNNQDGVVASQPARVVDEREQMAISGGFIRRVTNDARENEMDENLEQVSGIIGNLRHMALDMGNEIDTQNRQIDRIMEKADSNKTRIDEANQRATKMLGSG

FETSAAKLKRKYWWKNLKMMIILGVICAIILIIIIVYFST (domain or fragment) [VAMP 2 in v-SNARE bilayers after cleavage by BoNT/B (remaining membrane-anchored portion)]
dissociation rate of the inner barrier (kβ1^o): 20.1 s⁻¹ | dissociation rate of the outer barrier (kβ2^o): 0.46 s⁻¹
